We go through two molecules from patent publication US6011146A, “Altered major histocompatibility complex (MHC) determinant and methods of using the determinant” (Institut Pasteur, priority 1995, dated 2000).

The target in one experiment is SC-K^d -15 (mouse) (UniProt P01887).
Experiment [1] concerns the target K^d molecules isolated from the spleen of BALB/c mice (mouse, UniProt P01887). The experiment in a line: direct peptide binding assay, peptide coated on plastic, 125I-labeled K^d.

Several values for one entry are separate records, joined by “and”; a condition that tells them apart may be missing. Equal entries are not always repeated.

For influenza NPR- 147-158 (peptide), in the experiment with SC-K^d -15 (mouse), the cpm bound was 214 cpm and 171 cpm.

B1: influenza NPR- 147-158 (peptide)
peptide: TYQRTRALVTG
As for B1, the binding result in experiment [1] is on record as “no binding (tested: 10 µg/ml; pH 9.6)”.
